Assay results as given in article PMC4500674 (Archives of biochemistry and biophysics, 2015).

Biological target: T1, human Mia40, wild type, short linker form (human, UniProt Q8N4Q1 1-142)
T1 sequence: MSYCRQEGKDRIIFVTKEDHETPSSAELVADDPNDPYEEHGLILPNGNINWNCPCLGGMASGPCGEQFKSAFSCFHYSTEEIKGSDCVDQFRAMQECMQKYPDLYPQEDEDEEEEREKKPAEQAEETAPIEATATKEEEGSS
Assay: stopped-flow fluorescence kinetics

B1: reduced bovine pancreatic ribonuclease A (natural protein, UniProt P61823 27-150, looked up)
chain: KETAAAKFERQHMDSSTSAASSSNYCNQMMKSRNLTKDRCKPVNTFVHESLADVQAVCSQKNVACKNGQTNCYQSYSTMSITDCRETGSSKYPNCAYKTTQANKHIIVACEGNPYVPVHFDASV
Work on B1 yielded a Kd of 10.4 ± 0.2 µM.
